From patent US12031981B2, “Method for electronic detection and quantification of antibodies” (Arizona Board of Regents on behalf of Arizona State …, priority 2018, dated 2024)

Biological target: RGD peptide
Assay: Single molecule conductance of integrin binding RGD peptide on electrodes
Conditions: one ligand binding site

Chain of RGD peptide (P06756 31-889 limits assumed): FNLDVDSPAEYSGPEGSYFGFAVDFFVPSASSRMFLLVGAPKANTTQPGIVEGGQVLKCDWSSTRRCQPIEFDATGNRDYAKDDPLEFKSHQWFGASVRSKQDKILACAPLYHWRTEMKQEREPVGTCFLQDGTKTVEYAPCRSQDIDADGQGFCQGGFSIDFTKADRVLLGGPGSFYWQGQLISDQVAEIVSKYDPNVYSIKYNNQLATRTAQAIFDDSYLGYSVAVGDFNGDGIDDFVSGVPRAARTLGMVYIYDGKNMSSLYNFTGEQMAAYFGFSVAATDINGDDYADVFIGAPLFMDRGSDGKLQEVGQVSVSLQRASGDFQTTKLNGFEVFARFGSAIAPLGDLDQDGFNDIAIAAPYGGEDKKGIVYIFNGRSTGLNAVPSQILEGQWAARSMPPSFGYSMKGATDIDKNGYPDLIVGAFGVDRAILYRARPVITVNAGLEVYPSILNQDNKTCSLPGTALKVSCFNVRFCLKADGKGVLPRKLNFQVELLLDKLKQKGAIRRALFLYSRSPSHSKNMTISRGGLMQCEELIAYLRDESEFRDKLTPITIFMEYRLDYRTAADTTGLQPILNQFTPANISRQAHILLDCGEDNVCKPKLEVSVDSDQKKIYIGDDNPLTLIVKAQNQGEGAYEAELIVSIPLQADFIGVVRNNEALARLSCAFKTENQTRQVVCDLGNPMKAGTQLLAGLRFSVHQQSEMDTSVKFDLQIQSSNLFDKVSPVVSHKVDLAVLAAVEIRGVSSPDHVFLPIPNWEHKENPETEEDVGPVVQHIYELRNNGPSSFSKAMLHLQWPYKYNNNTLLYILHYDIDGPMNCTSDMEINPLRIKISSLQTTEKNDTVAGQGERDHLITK
Chain of RGD peptide (P06756 891-1048 partner limits assumed): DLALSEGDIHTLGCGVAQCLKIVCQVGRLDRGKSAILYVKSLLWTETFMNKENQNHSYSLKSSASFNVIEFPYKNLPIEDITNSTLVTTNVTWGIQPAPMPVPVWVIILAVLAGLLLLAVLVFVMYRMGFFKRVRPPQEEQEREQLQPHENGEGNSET
Chain of RGD peptide (P05106 27-788, further chain): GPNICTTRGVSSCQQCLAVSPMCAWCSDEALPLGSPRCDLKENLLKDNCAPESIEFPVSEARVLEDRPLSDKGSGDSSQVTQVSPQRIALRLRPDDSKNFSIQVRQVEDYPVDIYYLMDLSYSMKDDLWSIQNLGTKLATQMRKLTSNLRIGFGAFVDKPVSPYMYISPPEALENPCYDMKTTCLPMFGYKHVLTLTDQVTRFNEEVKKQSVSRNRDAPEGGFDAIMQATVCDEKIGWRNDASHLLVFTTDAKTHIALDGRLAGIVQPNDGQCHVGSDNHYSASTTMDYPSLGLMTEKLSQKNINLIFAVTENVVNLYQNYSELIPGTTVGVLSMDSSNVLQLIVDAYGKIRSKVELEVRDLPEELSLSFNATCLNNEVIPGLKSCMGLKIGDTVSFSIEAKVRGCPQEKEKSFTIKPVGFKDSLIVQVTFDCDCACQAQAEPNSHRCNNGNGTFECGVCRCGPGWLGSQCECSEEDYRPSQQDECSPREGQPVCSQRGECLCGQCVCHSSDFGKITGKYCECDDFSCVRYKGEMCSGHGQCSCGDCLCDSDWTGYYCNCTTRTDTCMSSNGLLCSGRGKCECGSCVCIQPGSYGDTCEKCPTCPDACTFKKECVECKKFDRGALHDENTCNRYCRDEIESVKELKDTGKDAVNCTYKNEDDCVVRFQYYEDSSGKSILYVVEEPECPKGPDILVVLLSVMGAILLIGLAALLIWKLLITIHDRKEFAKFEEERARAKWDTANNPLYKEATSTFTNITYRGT

Integrin: αvβ3 integrin binding RGD peptide; only one ligand binding site
conductance G, single peak of distribution: 0.3 nS
